The source of these data is article PMC2778851.

By Kd is commonly meant the concentration at which binding is half-saturated. Low values mean higher affinity, high ones lower affinity. As usually defined, the stoichiometry N is the number of molecules, sites or subunits per partner or assembly.

Test [1] has as its target HTLV-1 120 PR (HTLV-1 protease shortened by 5 C-terminal residues) (Human T-lymphotropic virus type 1 (HTLV-1)). The test is described as follows: activity-based dimerization assay.
In test [2] the target is His-HTLV-1 125 PR (N-terminally His-tagged full-length stabilized HTLV-1 protease) (Human T-lymphotropic virus type 1 (HTLV-1)). The test is described as follows: pull-down.
Test [3] deals with HTLV-1 125 PR (stabilized full-length HTLV-1 protease) (Human T-lymphotropic virus type 1 (HTLV-1)). The test is described as follows: activity-based dimerization assay.
The target is the same in test [4]. As to the kind of experiment: SEC. (In gel filtration, larger molecules generally elute earlier.)

Some results are limits rather than exact numbers.

In turn, “HTLV-1 120 PR (HTLV-1 protease shortened by 5 C-terminal residues) (domain or fragment)” had a Kd in test [1] of over 3000 nM. Moreover, the densitometric ratio of the untagged to the His-tagged band (120/H125) in test [2] was 37.2.
Turning to “HTLV-1 115 PR (HTLV-1 protease shortened by 10 C-terminal residues) (domain or fragment)”, the densitometric ratio of the untagged to the His-tagged band (115/H125) in test [2] is 37.3.
Regarding “HTLV-1 125 PR (stabilized full-length HTLV-1 protease) (enzyme)”, the Kd in test [3] amounted to 491 nM. Further, the densitometric ratio of the untagged to the His-tagged band (125/H125) in test [2] stood at 84.9. The same substance yielded a stoichiometry N in test [4] of 2.
